The subject of data set [1] is T1, CCCC(=O)Oc1ccc([N+](=O)[O-])cc1.
T1 construct: dimer ~70 kDa; residues Cys49 and Cys207
In words: p-nitrophenol release, Lineweaver-Burk plot. The class given is biochemical, uncultured bacterium. The settings on record: 50 mM Tris-HCl pH 8.0, 100 mM NaCl, 30 °C, 0.1-1.25 mM substrate. An excerpt:
p-nitrophenol release, Lineweaver-Burk plot on PMGL3

Data set [2] addresses PMGL3 mutant C49V (not stated (permafrost metagenomic library)). In words: SEC; Superdex 75 10/300 GL, 0.4 mL/min, 100 mM Tris-HCl pH 8.0, 150 mM NaCl; sample after incubation for 1 h at 40 °C; column calibrated with 29-669 kDa standards.
Data set [3] has the same target. The data set is described as follows: SEC; Superdex 75 10/300 GL, 0.4 mL/min, 100 mM Tris-HCl pH 8.0, 150 mM NaCl; fresh sample before heating; column calibrated with 29-669 kDa standards. (In general: SEC sorts molecules by how far they enter the pores of the column.)
The target of data set [4] is PMGL3 mutant C207F (not stated (permafrost metagenomic library)). In words: SEC; Superdex 75 10/300 GL, 0.4 mL/min, 100 mM Tris-HCl pH 8.0, 150 mM NaCl; sample after incubation for 1 h at 40 °C; column calibrated with 29-669 kDa standards.
For data set [5] the target is unchanged. In words: SEC; Superdex 75 10/300 GL, 0.4 mL/min, 100 mM Tris-HCl pH 8.0, 150 mM NaCl; fresh sample before heating; column calibrated with 29-669 kDa standards.
Data set [6] concerns the target cold-active esterase PMGL3 (wild type) (not stated (permafrost metagenomic library)). In words: SEC; Superdex 75 10/300 GL, 0.4 mL/min, 100 mM Tris-HCl pH 8.0, 150 mM NaCl; sample after incubation for 1 h at 40 °C; column calibrated with 29-669 kDa standards.
The target is the same in data set [7]. In words: SEC; Superdex 75 10/300 GL, 0.4 mL/min, 100 mM Tris-HCl pH 8.0, 150 mM NaCl; fresh sample before heating; column calibrated with 29-669 kDa standards.

As a reminder, the Km is the concentration of substrate that gives half-maximal velocity. Broadly, the Vmax is the top rate of the reaction or transport when substrate is in excess. In general, kcat refers to the number of substrate molecules converted per active site and unit of time at saturation. Usually kcat/Km stands for the second-order rate constant that governs catalysis at low substrate concentration. For PMGL3 (unidentified), in data set [1], the Km is 980 µM, the maximal velocity (Vmax) came out at 165000 µM/min/mg, the kcat amounted to 91.5 s⁻¹ and the specificity constant (kcat/Km) worked out at 93400 M⁻¹ s⁻¹.
In the same order, the values of PMGL3 (unidentified; C49V) are 1290 µM, 94700 µM/min/mg, 52.6 s⁻¹ and 40800 M⁻¹ s⁻¹.
In the same order, the values of PMGL3 (unidentified; C207F) are 170 µM, 94600 µM/min/mg, 52.5 s⁻¹ and 309000 M⁻¹ s⁻¹.
A word on the stoichiometry N: it is the number of molecules, sites or subunits per partner or assembly. On to PMGL3 mutant C49V (enzyme), for which the stoichiometry N in data set [2] turned out to be 4; in data set [3], 2.
Take PMGL3 mutant C207F (enzyme): the stoichiometry N in data set [4] was found to be 4; in data set [5] it was 2.
As to “cold-active esterase PMGL3 (wild type) (enzyme)”, the stoichiometry N was 4 in data set [6] and 2 in data set [7].

The values are drawn from article PMC6995580, “Thermal Inactivation of a Cold-Active Esterase PMGL3 Isolated from the Permafrost Metagenomic Library” (Biomolecules, 2019).
